# Experimental data published in patent US7053177B1, “Random peptides that bind to gastro-intestinal tract (GIT) transport receptors and related methods” (Cytogen Corporation, priority 1997, dated 2006).
# Ends that are not written are not given here.
# B1: phage PAX18 (peptide)
# peptide: SFLRFQSPRFEDYSRTISRLRNATNPSNVSDAHNNRALA
# modifications: also: displayed as N-terminal pIII fusion on M13 phage
# notes: M13 phage displaying this insert as N-terminal pIII fusion; whole phage in the ELISA; not shown: M13 phage particle / pIII display carrier (and vector flanks)
# B2: phage PAX35 (peptide)
# peptide: RSITDGGINEVDLSSVSNVLENANSHRAYRKHRPTLKRP
# modifications: also: displayed as N-terminal pIII fusion on M13 phage
# notes: as for B1
# B3: phage PAX38 (peptide, not shown: large carriers)
# peptide: SSKVSSPRDPTVPRKGGNVDYGCGHRSSARMPTSALSSITKCYT
# modifications: cysteine pairing not given here; also: displayed as N-terminal pIII fusion on M13 phage
# B4: phage PAX40 (peptide)
# peptide: RASTQGGRGVAPEFGASVLGRGCGSATYYTNSTSCKDAMGHNYS
# modifications: cysteine pairing not given here; also: displayed as N-terminal pIII fusion on M13 phage
# notes: as for B1
# B5: phage PAX43 (peptide, not shown: large carriers)
# peptide: RWCEKHKFTAARCSAGAGFERDASRPPQPAHRDNTNRNA
# modifications: cysteine pairing not given here; also: displayed as N-terminal pIII fusion on M13 phage
# B6: phage PAX45 (peptide)
# peptide: SFQVYPDHGLERHALDGTGPLYAMPGRWIRARPQNRDRQ
# modifications: also: displayed as N-terminal pIII fusion on M13 phage
# notes: as for B1
# B7: phage PAX46 (peptide)
# peptide: SRCTDNEQCPDTGTRSRSVSNARYFSSRLLKTHAPHRP
# modifications: cysteine pairing not given here; also: displayed as N-terminal pIII fusion on M13 phage
# notes: as for B1
# B8: phage P31 (peptide)
# peptide: SARDSGPAEDGSRAVRLNGVENANTRKSSRSNPRGRRHP
# modifications: also: displayed as N-terminal pIII fusion on M13 phage
# notes: M13 phage displaying this insert as N-terminal pIII fusion; whole phage in the ELISA; not shown: M13 pIII coat protein and phage particle (display carrier)
# B9: phage P90 (peptide)
# peptide: SSADAEKCAGSLLWWGRQNNSGCGSPTKKHLKHRNRSQTSSSSH
# modifications: cysteine pairing not given here; also: displayed as N-terminal pIII fusion on M13 phage
# notes: as for B8
# B10: phage 5PAX3 (peptide, not shown: large carriers)
# peptide: RPKNVADAYSSQDGAAAEETSHASNAARKSPKHKPLRRP
# modifications: also: displayed as N-terminal pIII fusion on M13 phage
# B11: phage 5PAX5 (peptide, not shown: large carriers)
# peptide: RGSTGTAGGERSGVLNLHTRDNASGSGFKPWYPSNRGHK
# modifications: also: displayed as N-terminal pIII fusion on M13 phage
# B12: phage 5PAX7 (peptide, not shown: large carriers)
# peptide: RWGWERSPSDYDSDMDLGARRYATRTHRAPPRVLKAPLP
# modifications: also: displayed as N-terminal pIII fusion on M13 phage
# B13: phage PAX9 (peptide, not shown: large carriers)
# peptide: RWPSVGYKGNGSDTIDVHSNDASTKRSLIYNHRRPLFP
# B14: phage PAX15 (peptide, not shown: large carriers)
# peptide: SYCRVKGGGEGGHTDSNLARSGCGKVARTSRLQHINPRATPPSR
# Key:
# BSA = BSA (Bos taurus, UniProt P02769); test: Receptor ELISA of phage on BSA (background control protein); assay type: binding
# Protocol: (§1) 96 well plates were coated overnight with GIT receptor, BSA and, optionally, IDE (insulin degrading enzyme, an irrelevant His-fusion protein)or hTF. The plates were blocked for one hour with 0.5% BSA-PBS. After clarification, the amplified phage were diluted 1:100 in 1% BSA plus 0.05% Tween 20 in PBS and added to the plates. Following incubation of the plates on a rotator for 1 to 2 hours, the plates were washed 5 times with 1% BSA plus 0.05% Tween 20 in PBS. Dilute anti-M13-HRP conjugate (anti-M13 antibody linked to horse radish peroxidase (HRP)) was added to all the wells and the plate was incubated for one hour on a rotator. After the plates were washed 5 times, as described above, TMB substrate was added to the wells. The plates were read at 650 nm absorbance.
# [1] = tested on: rat gastro-intestinal tract (closed loop); test: Transport of preselected phage libraries in rat closed loop, detected by oligonucleotide hybridization/autoradiography; details: D2H pool; in words
# Protocol: Four preselected phage libraries, GI-D2H, GI-hSI, GI-HPT1 and GI-hPEPT1, were constructed by pooling phage previously selected by screening random phage display libraries D38 and DC43 using the HPT1, HPEPT1, D2H and hSI receptor or binding sites located in the GIT.
# In particular, phages selected in vitro to each receptor or binding site located in the GIT were amplified in E. coli, PEG-precipitated, resuspended in TBS and the titer of each phage sample was determined by plaquing in E. coli as described above. […] Using the in situ loop model described above, 0.5 ml of preselected phage library solution was injected into the tied-off portion of the duodenum/jejunum. Blood was collected into heparinized tubes from the portal vein at 0, 15, 30, 45 and 60 minutes. A blood sample was taken from the systemic circulation at the end of the experiment. Similarly, the portion of the duodenum/jejunum used for phage injection was taken at the end of the experiment.
# Thirty microliters of the collected portal blood (neat and 10^−2, 10^−1, 10^−6 dilutions) was added to 30 μl E. coli K91Kan cells (overnight culture) and incubated at 37° C. for 10 min. Subsequently, 3 ml of top agarose was added and the samples were plated for plaques. One hundred microliters of the collected portal blood was added to 100 μl of E. coli K91Kan. Five milliliters of LB medium was then added and the samples were incubated at 37° C. overnight in a rotating microbial incubator. The E. coli was removed by centrifugation and the amplified phage supernatant samples were either titered directly or were PEG-precipitated, resuspended in TBS and titered. Following titration of the amplified phage, samples containing phage from each set of animals were combined, adjusting the titer of each sample to the same titer, and were plated for plaques on LB agar lates (22 cm^2 square plates). Either 12,000 or 24,000 phage were lated for plaques.
# Thirty microliters of the collected systemic blood (neat and 10^−2, 10^−1, 10^−6 dilutions) was added to E. coli K91Kan cells, incubated at 37° C. for 10 min. Three ml of top agarose was then added and the samples were plated for plaques. One hundred microliters of the collected systemic blood was added to 100 μl of E. coli K91Kan, incubated at 37° C. for 10 min. Five milliliters of LB medium was then added and the samples were incubated at 37° C. overnight in a rotating microbial incubator. The E. coli was removed by centrifugation and the amplified phage supernatant samples were either titered directly or were PEG-precipitated, resuspended in TBS and titered. Following titration of the amplified phage, samples containing phage from each set of animals were combined, adjusting the titer of each sample to the same titer, and were plated for plaques on LB agar plates (22 cm^2 square plates). Either 12,000 or 24,000 phage were plated for plaques.
# The intestinal tissue portion used in each closed loop was excised. […] Alternatively, the tissue (in PBS supplemented with protease inhibitors) was homogenized in an Ultra Thorex homogenizer, washed 3 times in PBS containing protease inhibitors and resuspended in PBS containing protease inhibitors (Int-G samples). In each case, serial dilutions (neat and 10^−2, 10^−4, 10^−6 dilutions) of the tissue homogenate was titered in E. coli.
# The phage amplified from the portal blood, systemic blood and intestinal tissue was plated for plaques. […] The filters were air-dried, and the DNA was cross-linked to the filter (UV crosslinking: 2 min, high setting). The filters were incubated in pre-hybridization buffer (6×SSC, 5× Denhardt's solution, 0.1% SDS, […] yeast tRNA) at 40° C.–45° C. for at least 60 min.
# Synthetic oligonucleotides, (22-mers), complimentary to regions coding for the receptor or binding sites used to create the preselected phage library, were synthesized (see Table 14 below).
# [2] = target: T1, recombinant hPEPT1 receptor domain (human PEPT1, amino acid residues 391-571), His-tag fusion protein (human, UniProt P46059 391-571); test: phage ELISA, OD on hPEPT1 over OD on BSA
# T1 construct: purified under denaturing conditions; coated on plates
# T1 sequence: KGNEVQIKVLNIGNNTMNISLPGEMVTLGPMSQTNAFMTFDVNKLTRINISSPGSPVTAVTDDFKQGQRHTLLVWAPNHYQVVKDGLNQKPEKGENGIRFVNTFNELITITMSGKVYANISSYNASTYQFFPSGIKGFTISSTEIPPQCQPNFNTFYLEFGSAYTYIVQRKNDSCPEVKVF
# Protocol: as §1, with “6.6. Receptor ELISA Procedure 96” for “96”, “Dilute anti-M13-HRP conjugate (anti-M13 antibody linked to horse radish peroxidase (HRP)) was added to all the wells and the plate was incubated for one hour on a rotator.” left out
# [3] = target: bovine serum albumin (bovine) (UniProt P02769); test: phage ELISA on coated BSA
# [4] = target: T1, recombinant hPEPT1 receptor domain …; test: phage ELISA on coated hPEPT1
# Protocol: as §1, with “6.6. Receptor ELISA Procedure 96” for “96”, “Dilute anti-M13-HRP conjugate (anti-M13 antibody linked to horse radish peroxidase (HRP)) was added to all the wells and the plate was incubated for one hour on a rotator.” left out
# [5] = target: T2, recombinant hPEPT1 receptor domain (human PEPT1, amino acid residues 391-571), His-tag fusion protein (human) (UniProt P46059); test: phage ELISA, OD on hPEPT1 over OD on BSA
# T2 sequence: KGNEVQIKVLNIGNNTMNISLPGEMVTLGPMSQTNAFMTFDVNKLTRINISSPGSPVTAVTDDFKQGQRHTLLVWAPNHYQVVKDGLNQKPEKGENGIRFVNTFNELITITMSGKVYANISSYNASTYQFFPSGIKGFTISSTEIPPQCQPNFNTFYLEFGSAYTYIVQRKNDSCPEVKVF
# [6] = target: T2, recombinant hPEPT1 receptor domain (human PEPT1, amino acid residues 391-571), His-tag fusion protein (human); test: phage ELISA on coated hPEPT1
# [7] = Table 1, phage panned on hSI, 650 nm
# [8] = Table 3, two pans on D2H, third on Caco-2 snapwells
# Chain of BSA (P02769 25-607): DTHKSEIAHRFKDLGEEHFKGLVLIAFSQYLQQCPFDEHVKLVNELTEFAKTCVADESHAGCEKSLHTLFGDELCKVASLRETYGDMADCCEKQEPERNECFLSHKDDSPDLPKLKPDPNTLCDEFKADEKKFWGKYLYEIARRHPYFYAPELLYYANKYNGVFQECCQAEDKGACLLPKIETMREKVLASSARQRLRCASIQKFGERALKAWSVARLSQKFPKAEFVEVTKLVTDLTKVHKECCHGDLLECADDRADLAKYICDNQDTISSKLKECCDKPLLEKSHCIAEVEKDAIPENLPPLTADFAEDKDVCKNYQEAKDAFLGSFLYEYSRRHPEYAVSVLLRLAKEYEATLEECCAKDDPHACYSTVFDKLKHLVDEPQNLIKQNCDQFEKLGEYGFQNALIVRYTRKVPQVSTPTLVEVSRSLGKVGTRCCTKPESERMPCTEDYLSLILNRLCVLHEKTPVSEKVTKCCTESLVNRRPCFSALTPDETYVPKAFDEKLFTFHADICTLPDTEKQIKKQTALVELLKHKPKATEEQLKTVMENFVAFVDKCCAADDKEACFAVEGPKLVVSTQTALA
# Chain of bovine serum albumin (bovine) (P02769 25-607 limits assumed): as the sequence (P02769 25-607) above
Molecule,PEPT1/BSA [2] [ratio],OD [3] [OD 650 nm],OD [4] [OD 650 nm],PEPT1/BSA [5],OD [6] [OD 650 nm],further results
SPCGGSWGRFMQGGLFGGRTDGCGAHRNRTSASLEPPSSDY [SNi34],–,–,–,–,–,BSA (BSA; [7]): 0.115 OD
RYKHDIGCDAGVDKKSSSVRGGCGAHSSPPRAGRGPRGTMVSRL [DCX8],–,–,–,–,–,Presence in the intestinal samples fractions [1]: to a much lesser extent; Transport from the GIT closed loop model into the portal circulation [1]: transported; BSA (BSA; [8]): 0.063 OD
SQGSKQCMQYRTGRLTVGSEYGCGMNPARHATPAYPARLLPRYR [DCX11],–,–,–,–,–,Presence in the intestinal samples fractions [1]: found; Transport from the GIT closed loop model into the portal circulation [1]: preferably transported; BSA (BSA; [8]): 0.071 OD
RVGQCTDSDVRRPWARSCAHQGCGAGTRNSHGCITRPLRQASAH [SNi10],–,–,–,–,–,BSA (BSA; [7]): 0.051 OD
B1,5,0.087,0.416,–,–,–
B2,7,0.065,0.474,–,–,–
B3,–,0.064,–,5,0.292,–
B4,6,0.076,0.461,–,–,–
B5,–,0.069,–,5,0.345,–
B6,5,0.081,0.419,–,–,–
B7,6,0.077,0.429,–,–,–
B8,11,0.075,0.807,–,–,–
B9,9,0.107,1.12,–,–,–
B10,–,0.04,–,4,0.173,–
B11,–,0.036,–,4,0.15,–
B12,–,0.037,–,5,0.171,–
B13,–,0.079,–,4,0.312,–
B14,–,0.079,–,4,0.301,–
